For data set [1], the system named is HeLa Kyoto. The experiment in a line: melting temperature (median over replicates), in situ; higher = more thermally stable.
Data set [2] has as its system HeLa Kyoto. The experiment in a line: thermal stability score vs G1/S (z-score of summed log2 fold changes over temperatures); higher = more thermally stable than in G1/S.
Data set [3] has as its system HeLa Kyoto. Kind of data set: solubility change mitosis vs G1/S (difference of NP-40 vs SDS log2 ratios) (log2 ratio difference); higher = more soluble in mitosis.
Data set [4] concerns HeLa Kyoto. Kind of data set: solubility in G1/S (NP-40 vs SDS abundance) (log2 ratio); higher = more soluble. Conditions: cell cycle stage: G1/S.
[5] abbreviates: cell cycle stage: early G1 (4.5 h after nocodazole release).
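Wherever melting temperature (median over replicates), in situ is given: HeLa Kyoto cells synchronized by double thymidine or nocodazole block, proteins quantified by TMT10plex mass spectrometry, three independent biological replicates.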
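Wherever solubility change mitosis vs G1/S (difference of NP-40 vs SDS log2 ratios) is given: synchronized HeLa Kyoto cells (double thymidine block for G1/S, nocodazole release for mitosis), protein amounts in NP-40 versus SDS lysates quantified by mass spectrometry, three biological replicates.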
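Wherever solubility in G1/S (NP-40 vs SDS abundance) is given: HeLa Kyoto cells arrested at G1/S by double thymidine block, proteins quantified by TMT10plex mass spectrometry in mild NP-40 versus SDS extracts, three biological replicates.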
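Wherever thermal stability score vs G1/S (z-score of summed log2 fold changes over temperatures) is given: synchronized HeLa Kyoto cells, proteins quantified by TMT10plex mass spectrometry, three biological replicates, mitosis taken 0.5 h after nocodazole release, G1/S directly after double thymidine block.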

Sequence of C1GALT1 (chain, as listed by the source): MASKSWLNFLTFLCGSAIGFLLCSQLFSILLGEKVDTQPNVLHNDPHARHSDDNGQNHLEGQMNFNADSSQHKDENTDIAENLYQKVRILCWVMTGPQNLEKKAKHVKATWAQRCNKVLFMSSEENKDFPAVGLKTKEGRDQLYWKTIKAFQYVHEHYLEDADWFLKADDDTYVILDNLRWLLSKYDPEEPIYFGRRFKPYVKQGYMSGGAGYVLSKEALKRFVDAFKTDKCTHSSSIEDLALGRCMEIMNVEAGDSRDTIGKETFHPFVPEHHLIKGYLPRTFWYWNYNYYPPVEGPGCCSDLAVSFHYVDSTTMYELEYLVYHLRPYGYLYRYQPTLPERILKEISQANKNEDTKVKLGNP

With “MIPRKRYGSKNTDQGVYLGLSKTQVLSPATAGSSSSDIAPLPPPVTLVPPPPDTMSCRDRTQEFLSACKSLQTRQNGIQTNKPALRAVRQRSEFTLMAKRIGKDLSNTFAKLEKLTILAKRKSLFDDKAVEIEELTYIIKQDINSLNKQIAQLQDFVRAKGSQSGRHLQTHSNTIVVSLQSKLASMSNDFKSVLEVRTENLKQQRSRREQFSRAPVSALPLAPNHLGGGAVVLGAESHASKDVAIDMMDSRTSQQLQLIDEQDSYIQSRADTMQNIESTIVELGSIFQQLAHMVKEQEETIQRIDENVLGAQLDVEAAHSEILKYFQSVTSNRWLMVKIFLILIVFFIIFVVFLA [STX5]”, the melting temperature amounted to 50 °C in the data set with HeLa Kyoto [1] (cell cycle stage: G1/S) and 49.9 °C with HeLa Kyoto [1] (cell cycle stage: mitosis). Further, the thermal stability score in the data set on HeLa Kyoto [2] (setting [5]) turned out to be 0.862; in the data set on HeLa Kyoto [2] (cell cycle stage: mitosis), 1.55. Also, the “solubility change mitosis (log2)” value in the data set with HeLa Kyoto [3] was -0.103. In the data set on HeLa Kyoto [4], the “solubility in G1/S (log2)” value stood at 0.558.
In the case of “MGRRRAPAGGSLGRALMRHQTQRSRSHRHTDSWLHTSELNDGYDWGRLNLQSVTEQSSLDDFLATAELAGTEFVAEKLNIKFVPAEARTGLLSFEESQRIKKLHEENKQFLCIPRRPNWNQNTTPEELKQAEKDNFLEWRRQLVRLEEEQKLILTPFERNLDFWRQLWRVIERSDIVVQIVDARNPLLFRCEDLECYVKEMDANKENVILINKADLLTAEQRSAWAMYFEKEDVKVIFWSALAGAIPLNGDSEEEANRDDRQSNTTKFGHSSFDQAEISHSESEHLPARDSPSLSENPTTDEDDSEYEDCPEEEEDDWQTCSEEDGPKEEDCSQDWKESSTADSEARSRKTPQKRQIHNFSHLVSKQELLELFKELHTGRKVKDGQLTVGLVGYPNVGKSSTINTIMGNKKVSVSATPGHTKHFQTLYVEPGLCLCDCPGLVMPSFVSTKAEMTCSGILPIDQMRDHVPPVSLVCQNIPRHVLEATYGINIITPREDEDPHRPPTSEELLTAYGYMRGFMTAHGQPDQPRSARYILKDYVSGKLLYCHPPPGRDPVTFQHQHQRLLENKMNSDEIKMQLGRNKKAKQIENIVDKTFFHQENVRALTKGVQAVMGYKPGSGVVTASTASSENGAGKPWKKHGNRNKKEKSRRLYKHLDM [LSG1]”, the melting temperature with HeLa Kyoto [1] (cell cycle stage: G1/S) and in the data set on HeLa Kyoto [1] (cell cycle stage: mitosis) was 49 °C in each case. Further, the thermal stability score was determined as 0.926 with HeLa Kyoto [2] (setting [5]) and 1.89 in the data set on HeLa Kyoto [2] (cell cycle stage: mitosis). Moreover, the “solubility change mitosis (log2)” value with HeLa Kyoto [3] stood at 0.0936. Also, the “solubility in G1/S (log2)” value in the data set on HeLa Kyoto [4] was -0.366.
With C1GALT1, the melting temperature in the data set on HeLa Kyoto [1] (cell cycle stage: G1/S) is 53.7 °C; in the data set with HeLa Kyoto [1] (cell cycle stage: mitosis) it was 53.6 °C. Besides, the results for the thermal stability score in the data set with HeLa Kyoto [2] (setting [5]) and in the data set on HeLa Kyoto [2] (cell cycle stage: mitosis) were -1.2 and 0.982, respectively. Moreover, the “solubility change mitosis (log2)” value in the data set with HeLa Kyoto [3] was -0.0544. Also, the “solubility in G1/S (log2)” value with HeLa Kyoto [4] turned out to be 0.222.
Consider “MLSRPKPGESEVDLLHFQSQFLAAGAAPAVQLVKKGNRGGGDANSDRPPLQDHRDVVMLDNLPDLPPALVPSPPKRARPSPGHCLPEDEDPEERLRRHDQHITAVLTKIIERDTSSVAVNLPVPSGVAFPAVFLRSRDTQGKSATSGKRSIFAQEIAARRIAEAKGPSVGEVVPNVGPPEGAVTCETPTPRNQGCQLPGSSHSFQGPNLVTGKGLRDQEAEQEAQTIHEENIARLQAMAPEEILQEQQRLLAQLDPSLVAFLRSHSHTQEQTGETASEEQRPGGPSANVTKEEPLMSAFASEPRKRDKLEPEAPALALPVTPQKEWLHMDTVELEKLHWTQDLPPVRRQQTQERMQARFSLQGELLAPDVDLPTHLGLHHHGEEAERAGYSLQELFHLTRSQVSQQRALALHVLAQVISRAQAGEFGDRLAGSVLSLLLDAGFLFLLRFSLDDRVDGVIATAIRALRALLVAPGDEELLDSTFSWYHGALTFPLMPSQEDKEDEDEDEECPAGKAKRKSPEEESRPPPDLARHDVIKGLLATSLLPRLRYVLEVTYPGPAVVLDILAVLIRLARHSLESATRVLECPRLIETIVREFLPTSWSPVGAGPTPSLYKVPCATAMKLLRVLASAGRNIAARLLSSFDLRSRLCRIIAEAPQELALPPEEAEMLSTEALRLWAVAASYGQGGYLYRELYPVLMRALQVVPRELSTHPPQPLSMQRIASLLTLLTQLTLAAGSTPAETISDSAEASLSATPSLVTWTQVSGLQPLVEPCLRQTLKLLSRPEMWRAVGPVPVACLLFLGAYYQAWSQQPSSCPEDWLQDMQRLSEELLLPLLSQPTLGSLWDSLRHCSLLCNPLSCVPALEAPPSLVSLGCSGGCPRLSLAGSASPFPFLTALLSLLNTLAQIHKGLCGQLAAILAAPGLQNYFLQCVAPGAAPHLTPFSAWALRHEYHLQYLALALAQKAAALQPLPATHAALYHGMALALLSRLLPGSEYLTHELLLSCVFRLEFLPERTSGGPEAADFSDQLSLGSSRVPRCGQGTLLAQACQDLPSIRNCYLTHCSPARASLLASQALHRGELQRVPTLLLPMPTEPLLPTDWPFLPLIRLYHRASDTPSGLSPTDTMGTAMRVLQWVLVLESWRPQALWAVPPAARLARLMCVFLVDSELFRESPVQHLVAALLAQLCQPQVLPNLNLDCRLPGLTSFPDLYANFLDHFEAVSFGDHLFGALVLLPLQRRFSVTLRLALFGEHVGALRALSLPLTQLPVSLECYTVPPEDNLALLQLYFRTLVTGALRPRWCPVLYAVAVAHVNSFIFSQDPQSSDEVKAARRSMLQKTWLLADEGLRQHLLHYKLPNSTLPEGFELYSQLPPLRQHYLQRLTSTVLQNGVSET [RPAP1]”, for which the melting temperature is 52.9 °C in the data set on HeLa Kyoto [1] (cell cycle stage: G1/S) and 51.7 °C in the data set on HeLa Kyoto [1] (cell cycle stage: mitosis). Besides, the results for the thermal stability score in the data set on HeLa Kyoto [2] (setting [5]) and in the data set on HeLa Kyoto [2] (cell cycle stage: mitosis) were 0.47 and 0.88, respectively. Moreover, the “solubility change mitosis (log2)” value in the data set on HeLa Kyoto [3] was -0.0998. The “solubility in G1/S (log2)” value in the data set with HeLa Kyoto [4] is -0.1.
For “MAKPAQGAKYRGSIHDFPGFDPNQDAEALYTAMKGFGSDKEAILDIITSRSNRQRQEVCQSYKSLYGKDLIADLKYELTGKFERLIVGLMRPPAYCDAKEIKDAISGIGTDEKCLIEILASRTNEQMHQLVAAYKDAYERDLEADIIGDTSGHFQKMLVVLLQGTREEDDVVSEDLVQQDVQDLYEAGELKWGTDEAQFIYILGNRSKQHLRLVFDEYLKTTGKPIEASIRGELSGDFEKLMLAVVKCIRSTPEYFAERLFKAMKGLGTRDNTLIRIMVSRSELDMLDIREIFRTKYEKSLYSMIKNDTSGEYKKTLLKLSGGDDDAAGQFFPEAAQVAYQMWELSAVARVELKGTVRPANDFNPDADAKALRKAMKGLGTDEDTIIDIITHRSNVQRQQIRQTFKSHFGRDLMTDLKSEISGDLARLILGLMMPPAHYDAKQLKKAMEGAGTDEKALIEILATRTNAEIRAINEAYKEDYHKSLEDALSSDTSGHFRRILISLATGHREEGGENLDQAREDAQVAAEILEIADTPSGDKTSLETRFMTILCTRSYPHLRRVFQEFIKMTNYDVEHTIKKEMSGDVRDAFVAIVQSVKNKPLFFADKLYKSMKGAGTDEKTLTRIMVSRSEIDLLNIRREFIEKYDKSLHQAIEGDTSGDFLKALLALCGGED [ANXA6]”, the melting temperature in the data set with HeLa Kyoto [1] (cell cycle stage: G1/S) and with HeLa Kyoto [1] (cell cycle stage: mitosis) was 50 °C throughout. For the same substance, the thermal stability score with HeLa Kyoto [2] (setting [5]) came to 5.43; with HeLa Kyoto [2] (cell cycle stage: mitosis), 4.61. Moreover, the “solubility change mitosis (log2)” value with HeLa Kyoto [3] is -0.172. For the same substance, the “solubility in G1/S (log2)” value in the data set on HeLa Kyoto [4] amounted to 0.275.

For the origin of these results see the supplement of paper PMC5998384.
